In patent US9803012B2, “Compositions and methods for regulating SAS1R” (UNIVERSITY OF VIRGINIA PATENT FOUNDATION, priority 2005, dated 2017):

Columns and labels:
Metaphase II eggs = experiment: Egg labeling by indirect immunofluorescence; type: cell-based, mouse; conditions: 100 μg/ml protein, 45 min
Procedure: Metaphase II eggs were obtained as previously described (Coonrod et al, 1999) and incubated with 5% NGS/media for 30 min. Oocytes were washed five times in TYH medium and incubated with 100 μg/ml recmSLLP1 or 100 μg/ml lysozymes for 45 min at 37° C. and 5% CO2. Oocytes were washed five times and incubated with guinea pig anti-recmSLLP1 polyclonal antibody (1:50), sheep anti-human lysozyme (1:25) or rabbit anti-chicken lysozyme (1:400) in 5% NGS/media for 1 h at 37° C. and 5% CO2. Oocytes were washed five times and incubated with donkey anti-guinea pig/Texas Red antibody (1:200) or goat anti-guinea pig/FITC antisera 1:200), donkey anti-sheep and goat anti-rabbit FITC-labeled secondary antibody (1:200) (Jackson ImmunoResearch), respectively in 5% NGS/media for 1 h at […] 37° C. and 5% CO2. Oocytes were washed and mounted in media onto glass slides and visualized under a Zeiss Standard 18 ultraviolet microscope. Images were captured by using MrGrab 1.0 (Carl Zeiss Vision GmbH, Germany).

mouse sperm-egg fusion = conditions: cited from earlier work
oolemma = conditions: sea urchin; cited from earlier work
cumulus intact oocytes = experiment: Mouse in vitro fertilization, capacitated sperm pre-incubated with rSAS1R; type: cell-based
Procedure: Epididymal sperm from sexually mature and oocytes from 6 to 8 weeks old ICR mice were used for gamete studies and IVF. Capacitated sperm in presence or absence of rSAS1R were used to inseminate cumulus intact oocytes and fertilization was scored by counting two cell embryos.
ICR mice were used in all experiments. Suspensions of epididymal spermatozoa from sexually mature male mice were prepared for insemination of isolated oocytes. Oocytes were obtained from 6 to 8 weeks old females superovulated with 10 IU PMSG and 10 IU hCG, injected intraperitoneally at 48 h intervals. Females were killed 16 h after hCG injection, and both oviducts were immediately removed, placed in mineral oil, and flushed to recover oocytes.
In vitro fertilization was conducted with cumulus intact oocytes using sperm dispersed from cauda epididymides. Sperm were placed for 5 min in 200 μl drops of fertilization medium under paraffin oil. […] The eggs were then placed in 5 μl of fertilization medium between a microscope slide and an elevated coverslip, and visualized at 160× using light and fluorescence microscopy (Zeiss Axioplan). Two-cell embryos were scored as fertilized, while one-celled oocytes were scored as unfertilized.

capacitated sperm = experiment: Co-localization of rSAS1R binding sites and SLLP1 on sperm; type: cell-based, mouse; conditions: capacitated sperm incubated with rSAS1R, probed with both antibodies
Procedure: Zona intact-, zona free oocytes, early embryos and sperm were collected as before (10), blocked and probed with 1st and 2nd antibody and imaged with UV-microscopy. For co-LC studies, gametes were incubated with soluble rSAS1R or rSLLP1, washed, probed with 1st- and 2nd antibodies and imaged with UV-microscopy.
Similarly capacitated mouse sperm were also examined for co-localization of SAS1R binding sites and SLLP1 localization. Sperms were incubated with increasing concentrations (0-100 μg/ml) of rSAS1R for 1 h, then sperm were washed two times at 700 g for 8 min and droplets were made on glass slide. These droplets were air-dried for 30 min and rehydrated again with 20 μl of PBS for 5 min. Now in the droplets, sperm were fixed with 20 μl of 4% paraformaldehyde for 25 min and then washed with 20 μl of PBS thrice for 5 min each. Now the droplets were blocked with 10% NGS for 30 min and incubated with guinea pig anti-rSAS1R polyclonal antibody (1:200) and rat anti-rSLLP1 polyclonal antibody (1:200) simultaneously, in 0.1% NGS/media for 1 h at 37° C. and 5% CO2. All the droplets were washed three times and incubated with goat anti-guinea pig/Cy3 red antibody (1:200, Jackson ImmunoResearch, PA) and goat anti-rat/FITC green antibody (1:200, Jackson ImmunoResearch, PA), in 0.1% NGS/media for 1 h at 37° C. and 5% CO2. Sperms were washed and mounted in media on glass slides. […]

[1] = biological target: T1, fluorescent tagged synthetic peptide (Mus musculus, UniProt Q6HA09); experiment: Protease activity assay of SAS1R (EnzChek Peptidase/Protease Assay Kit, FRET); type: biochemical
T1 construct: The mature rSAS1R (414 residues); 20 vector-encoded residues including His6 (pET-28b) (N); made in house; host or cells: E. coli BL21DE3
T1 sequence (Q6HA09 22-435): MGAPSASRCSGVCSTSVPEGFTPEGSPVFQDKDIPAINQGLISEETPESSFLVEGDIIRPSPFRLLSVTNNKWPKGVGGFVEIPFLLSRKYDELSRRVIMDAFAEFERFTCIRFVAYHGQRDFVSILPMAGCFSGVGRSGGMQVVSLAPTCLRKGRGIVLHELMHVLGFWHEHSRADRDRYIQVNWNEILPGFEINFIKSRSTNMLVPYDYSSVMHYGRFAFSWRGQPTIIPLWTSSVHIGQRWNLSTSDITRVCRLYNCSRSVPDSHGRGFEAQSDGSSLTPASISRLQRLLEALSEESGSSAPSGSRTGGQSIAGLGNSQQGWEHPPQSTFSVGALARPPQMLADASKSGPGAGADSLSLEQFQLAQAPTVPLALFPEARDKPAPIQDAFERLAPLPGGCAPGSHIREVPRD
Procedure: Protease activity was assayed with purified soluble rSAS1R using the EnzChek® Peptidase/Protease Assay Kit.
Protease activity was assayed in serial dilutions (0-2000 ng) of purified bacterial recombinant SAS1R using the EnzChek® Peptidase/Protease Assay Kit (Molecular Probes, OR), which provides a FRET (fluorescence resonance energy transfer)-based method for quantitation of a wide range of protease activities. This assay was performed in 100 μl size reactions and repeated three times with varying concentrations of recombinant SAS1R. Fluorescence was measured over 24 h following the manufacturer's protocol. Protease activity of recombinant SAS1R appeared within 1 h and increased within 24 h. SLLP1 was used as a negative control. The assay method was validated using purified trypsin as a positive control (Sigma, MO).

mouse eggs = experiment: Binding of SLLP2 to mouse eggs; type: cell-based; conditions: human SLLP2
Procedure: To analyze the biologic activity of human SLLP2, it was determined whether it would bind to an egg, in this case, a mouse egg.
For comparison to the use of human sperm SLLP2, an experiment was performed to determine if purified mouse SLLP2 would bind to Zona intact mouse eggs. […] Competitive assays were then performed to determine whether the addition of recombinant mouse SLLP2 to a mixture of mouse sperm and mouse eggs could inhibit binding of sperm and eggs. Various amounts of recombinant mouse SLLP2 were added (5, 25, 50, 100, and 200 μg/ml) and the number of sperm bound per egg was determined.

zona-free mouse eggs = experiment: In vitro fertilization with zona-free eggs (sperm-oolemma binding and fusion); type: cell-based; conditions: 25 μg of human SLLP1
Procedure: For the sperm-oolemma binding assay, two cauda epididymides were placed in 900 μl drops of fertilization medium under paraffin oil for the dense mass of spermatozoa to flow freely for ˜15 min and then diluted at 1×10^6/ml for 3 h of capacitation. Cumulus oocyte complexes were placed in 200 μl drops of TYH medium under paraffin oil. Cumulus cells were removed by treating the oocytes for 3 min with 1 mg/ml hyaluronidase in TYH medium and then washed 8 times in 50 μl drops. Zona pellucidae were loosened by treating the oocytes with 10 μg/ml chymotrypsin in TYH media for 1 min and loosened zonae were removed by mechanical agitation using a pulled Pasteur pipette. The oocytes were then washed 10 times and allowed to recover from chymotrypsin treatment by incubating in TYH media for 3 h, following which, they were stained with 10 μg/ml Hoechst dye for 10 min, and then gently washed. […]
To compare the effects of recmSLLP1 with human and chicken c lysozymes, spermatozoa were first incubated under standard capacitating conditions. Oocytes were pre-incubated for 45 min before insemination with recmSLLP1 (0.1 to 200 μg/ml) or with hSLLP1 (25 μg/ml) or with chicken or human lysozyme (50 μg/ml, 100 μg/ml). Untreated capacitated sperm were then added to the incubation drops containing the treated eggs with a final sperm concentration of 2.5×10^4/ml. Thus, in all the experiments performed the sera, the recombinant protein, or the lysozyme was present in the incubation droplet during gamete interaction. After 30 min of gamete co-incubation, oocytes were gently washed 5 times in TYH medium and placed between a microscope slide and an elevated coverslip and visualized at 160×. Binding to the oocyte was scored by counting the number of bound spermatozoa per oocyte using phase contrast. Fusion with the egg was scored by counting the number of decondensed sperm heads within each oocyte using fluorescence microscopy.

With “human lysozyme: conventional human c lysozyme used as comparator” as the molecule, how does the “fluorescence of mouse oocytes after incubation with protein and respective antibody” value (Metaphase II eggs) read?
Its value is “did not show any fluorescence”.

Which results are given for `c1cnc2c(c1)ccc1cccnc12` [1,10-phenanthroline]?
sperm-egg binding (mouse sperm-egg fusion): without reducing sperm-egg binding; sperm-egg fusion (mouse sperm-egg fusion): inhibited mouse sperm-egg fusion; binding of acrosome reacted sperm to the oolemma (oolemma): no effect; block of membrane fusion (oolemma): 95%

For “chicken lysozyme: conventional chicken c lysozyme used as comparator”, which “fluorescence of mouse oocytes after incubation with protein and respective antibody” value (Metaphase II eggs) is on record?
Its value is “did not show any fluorescence”.

B1: rSAS1R: mature recombinant mouse SAS1R (414 residues; SEQ ID NO:6) expressed in E. coli with histidine tag, affinity purified (protein, listed as Mus musculus)
chain: T1 sequence (Q6HA09 22-435)
modifications: His tag
What does the source list for B1?
reduction in fertilization (cumulus intact oocytes; 10 μg/ml rSAS1R): not statistically significant; reduction in fertilization (cumulus intact oocytes; 25 μg/ml rSAS1R, P≦0.03, two cell embryos scored): 89%; binding to sperm (capacitated sperm): binds to acrosome of sperm and co-localizes with native SLLP1; proteolytic activity ([1]; 200-2000 ng rSAS1R in 100 μl assay, FRET, up to 24 h): dose dependent proteolytic activity; time until protease activity appeared ([1]; fluorescence measured over 24 h): ≤ 1 h

B2: human SLLP2: recombinant human SLLP2 expressed in E. coli (SEQ ID NO:18) (protein, listed as Homo sapiens)
chain: MKAWGTVVVTLATLMVVTVDAKIYERCELAARLERAGLNGYKGYGVGDWLCMAHYESGFDTAFVDHNPDGSSEYGIFQLNSAWWCDNGITPTKNLCHMDCHDLLNRHILDDIRCAKQIVSSQNGLSAWTSWRLHCSGHDLSEWLKGCDMHVKIDPKIHP
For B2, which “binding to mouse eggs (cross-species)” value (mouse eggs) is on record?
The value was “can indeed bind with mouse eggs”.

B3: human SLLP1: human sperm lysozyme-like protein 1 (SEQ ID NO:14) (protein, listed as Homo sapiens)
chain: MVSALRGAPLIRVHSSPVSSPSVSGPRRLVSCLSSQSSALSQSGGGSTSAAGIEARSRALRRRWCPAGIMLLALVCLLSCLLPSSEAKLYGRCELARVLHDFGLDGYRGYSLADWVCLAYFTSGFNAAALDYEADGSTNNGIFQINSRRWCSNLTPNVPNVCRMYCSDLLNPNLKDTVICAMKITQEPQGLGYWEAWRHHCQGKDLTEWVDGCDF
For B3, which “sperm-egg binding and fusion” value (zona-free mouse eggs) is on record?
The value was “maximally inhibited”.
